Patent US20100310640A1

T1: HLA-DR DRB1*0101 (human)
T1 chain 1: not shown
T1 chain 2: not shown

T2: HLA-DR DRB4*0101 (human)
T2 chain 1: not shown
T2 chain 2: not shown

T3: HLA-DR DRB1*0301 (human)
T3 chain 1: not shown
T3 chain 2: not shown

T4: HLA-DR DRB5*0101 (human)
T4 chain 1: not shown
T4 chain 2: not shown

T5: HLA-DR DRB1*1302 (human)
T5 chain 1: not shown
T5 chain 2: not shown

T6: HLA-DR DRB1*0404 (human)
T6 chain 1: not shown
T6 chain 2: not shown

T7: HLA-DR DRB1*0405 (human)
T7 chain 1: not shown
T7 chain 2: not shown

T8: HLA-DR DRB1*0401 (human)
T8 chain 1: not shown
T8 chain 2: not shown

T9: HLA-DR DRB1*1101 (human)
T9 chain 1: not shown
T9 chain 2: not shown

T10: HLA-DR DRB1*0701 (human)
T10 chain 1: not shown
T10 chain 2: not shown


Molecular target: T1, HLA-DR DRB1*0101 (human)
Assay: radioligand competition, purified HLA-DR
Conditions: remark: other sources report otherwise

Row | IC50 | Binder
1 | 44 nM | VAAVQGLNLRSPNNF [Cyclin D1.209 (peptide 9019.0171)]

Molecular target: T2, HLA-DR DRB4*0101 (human)
Assay: radiolabeled-peptide inhibition, purified HLA-DR
Conditions: remark: other sources report otherwise

Row | IC50 | Binder
2 | 7800 nM | KIPVAIKVLRENTSP [1622.03]
3 | 11000 nM | ILLVVVLGVVFGILI [9019.0068]
4 | 5060 nM | AYVMAGVGSPYVSRL [9019.0077]
5 | 3110 nM | ISAVVGILLVVVLGV [9019.0067]
6 | 2540 nM | GMSYLEDVRLVHRDL [9019.0002]
7 | 2550 nM | LQGLPREYVNARHCL [9019.0064]
8 | 3000 nM | CMQIAKGMSYLEDVR [9019.0083]
9 | 270 nM | ITGYLYISAWPDSLP [9019.0050]

Molecular target: T3, HLA-DR DRB1*0301 (human)
Assay: radiolabeled-peptide inhibition, purified HLA-DR
Conditions: remark: other sources report otherwise

Row | IC50 | Binder
10 | 27 nM | GMSYLEDVRLVHRDL [9019.0002]
11 | 9000 nM | LQGLPREYVNARHCL [9019.0064]
12 | 989 nM | PESFDGDPASNTAPL [9019.0048]

Molecular target: T4, HLA-DR DRB5*0101 (human)
Assay: radiolabeled-peptide inhibition, purified HLA-DR
Conditions: remark: other sources report otherwise

Row | IC50 | Binder
13 | 94 nM | LREVRAVTSANIQEF [9019.0046]
14 | 1500 nM | KIPVAIKVLRENTSP [1622.03]
15 | 5420 nM | SDVWSYGVTVWELMT [9019.0089]
16 | 308 nM | AYVMAGVGSPYVSRL [9019.0077]
17 | 7040 nM | SQFLRGQECVEECRV [9019.0062]
18 | 130 nM | CMQIAKGMSYLEDVR [9019.0083]
19 | 67 nM | ITGYLYISAWPDSLP [9019.0050]

Molecular target: T5, HLA-DR DRB1*1302 (human)
Assay: radiolabeled-peptide inhibition, purified HLA-DR
Conditions: remark: other sources report otherwise

Row | IC50 | Binder
20 | 478 nM | ILLVVVLGVVFGILI [9019.0068]
21 | 116 nM | HRDLAARNVLVKSPN [9019.0085]
22 | 402 nM | AYVMAGVGSPYVSRL [9019.0077]
23 | 443 nM | ISAVVGILLVVVLGV [9019.0067]
24 | 3790 nM | GMSYLEDVRLVHRDL [9019.0002]
25 | 670 nM | LQGLPREYVNARHCL [9019.0064]
26 | 2230 nM | CMQIAKGMSYLEDVR [9019.0083]
27 | 751 nM | ITGYLYISAWPDSLP [9019.0050]
28 | 3900 nM | PESFDGDPASNTAPL [9019.0048]

Molecular target: T6, HLA-DR DRB1*0404 (human)
Assay: radiolabeled-peptide inhibition, purified HLA-DR
Conditions: remark: other sources report otherwise

Row | IC50 | Binder
29 | 125 nM | KIPVAIKVLRENTSP [1622.03]
30 | 3530 nM | ILLVVVLGVVFGILI [9019.0068]
31 | 3000 nM | ISAVVGILLVVVLGV [9019.0067]
32 | 4550 nM | SQFLRGQECVEECRV [9019.0062]
33 | 867 nM | CMQIAKGMSYLEDVR [9019.0083]
34 | 9020 nM | PESFDGDPASNTAPL [9019.0048]

Molecular target: T7, HLA-DR DRB1*0405 (human)
Assay: radiolabeled-peptide inhibition, purified HLA-DR
Conditions: remark: other sources report otherwise

Row | IC50 | Binder
35 | 1900 nM | SDVWSYGVTVWELMT [9019.0089]
36 | 376 nM | ILLVVVLGVVFGILI [9019.0068]
37 | 11200 nM | HRDLAARNVLVKSPN [9019.0085]
38 | 596 nM | AYVMAGVGSPYVSRL [9019.0077]
39 | 447 nM | ISAVVGILLVVVLGV [9019.0067]
40 | 4320 nM | GMSYLEDVRLVHRDL [9019.0002]
41 | 8.5 nM | ITGYLYISAWPDSLP [9019.0050]

Molecular target: T8, HLA-DR DRB1*0401 (human)
Assay: radiolabeled-peptide inhibition, purified HLA-DR
Conditions: remark: other sources report otherwise

Row | IC50 | Binder
42 | 3860 nM | KIPVAIKVLRENTSP [1622.03]
43 | 2760 nM | SDVWSYGVTVWELMT [9019.0089]
44 | 635 nM | ILLVVVLGVVFGILI [9019.0068]
45 | 401 nM | HRDLAARNVLVKSPN [9019.0085]
46 | 420 nM | ISAVVGILLVVVLGV [9019.0067]
47 | 1020 nM | SQFLRGQECVEECRV [9019.0062]
48 | 201 nM | LQGLPREYVNARHCL [9019.0064]
49 | 2650 nM | CMQIAKGMSYLEDVR [9019.0083]
50 | 243 nM | ITGYLYISAWPDSLP [9019.0050]

Molecular target: T9, HLA-DR DRB1*1101 (human)
Assay: radiolabeled-peptide inhibition, purified HLA-DR
Conditions: remark: other sources report otherwise

Row | IC50 | Binder
51 | 4110 nM | KIPVAIKVLRENTSP [1622.03]
52 | 2640 nM | SDVWSYGVTVWELMT [9019.0089]
53 | 2460 nM | ILLVVVLGVVFGILI [9019.0068]
54 | 244 nM | GMSYLEDVRLVHRDL [9019.0002]
55 | 2570 nM | ITGYLYISAWPDSLP [9019.0050]
56 | 12600 nM | PESFDGDPASNTAPL [9019.0048]

Molecular target: T1, HLA-DR DRB1*0101 (human)
Assay: radiolabeled-peptide inhibition, purified HLA-DR
Conditions: remark: other sources report otherwise

Row | IC50 | Binder
57 | 17 nM | LREVRAVTSANIQEF [9019.0046]
58 | 1500 nM | KIPVAIKVLRENTSP [1622.03]
59 | 158 nM | HRDLAARNVLVKSPN [9019.0085]
60 | 92 nM | AYVMAGVGSPYVSRL [9019.0077]
61 | 462 nM | SQFLRGQECVEECRV [9019.0062]
62 | 354 nM | LQGLPREYVNARHCL [9019.0064]
63 | 96 nM | ITGYLYISAWPDSLP [9019.0050]

Molecular target: T10, HLA-DR DRB1*0701 (human)
Assay: radiolabeled-peptide inhibition, purified HLA-DR
Conditions: remark: other sources report otherwise

Row | IC50 | Binder
64 | 352 nM | MAGVGSPYVSRLLGI [9019.0078]
65 | 780 nM | ILLVVVLGVVFGILI [9019.0068]
66 | 941 nM | ISAVVGILLVVVLGV [9019.0067]
67 | 5410 nM | GMSYLEDVRLVHRDL [9019.0002]
68 | 540 nM | SQFLRGQECVEECRV [9019.0062]
69 | 1900 nM | LQGLPREYVNARHCL [9019.0064]
70 | 116 nM | CMQIAKGMSYLEDVR [9019.0083]
71 | 2820 nM | PESFDGDPASNTAPL [9019.0048]
